Usually Km stands for the concentration of substrate that gives half-maximal velocity. A word on the kcat: it is the number of substrate molecules converted per active site and unit of time at saturation. By kcat/Km is commonly meant the second-order rate constant that governs catalysis at low substrate concentration. As usually defined, the IC50 is the concentration at which inhibition is half-maximal.

For series [1], the system named is N[C@@H](Cc1ccc2ccccc2c1)C(=O)O. As to the kind of experiment: purified protein, by the assay type. Particulars: pH 7.6.
Series [2] concerns N[C@@H](Cc1c[nH]c2ccccc12)C(=O)O. In words: purified protein, by the assay type. Particulars: pH 7.6.
In a further series the test system is N[C@@H](Cc1ccccc1)C(=O)O. As to the kind of experiment: purified protein, by the assay type. Particulars: pH 7.6.
In series [3] the target is (T415A) yeast phenylalanine aminoacyl tRNA synthetase (PheRS) (Saccharomyces cerevisiae, UniProt P15625, T415A). The class given is biochemical.
Sequence of (T415A) yeast phenylalanine aminoacyl tRNA synthetase (PheRS) (P15624 whole entry): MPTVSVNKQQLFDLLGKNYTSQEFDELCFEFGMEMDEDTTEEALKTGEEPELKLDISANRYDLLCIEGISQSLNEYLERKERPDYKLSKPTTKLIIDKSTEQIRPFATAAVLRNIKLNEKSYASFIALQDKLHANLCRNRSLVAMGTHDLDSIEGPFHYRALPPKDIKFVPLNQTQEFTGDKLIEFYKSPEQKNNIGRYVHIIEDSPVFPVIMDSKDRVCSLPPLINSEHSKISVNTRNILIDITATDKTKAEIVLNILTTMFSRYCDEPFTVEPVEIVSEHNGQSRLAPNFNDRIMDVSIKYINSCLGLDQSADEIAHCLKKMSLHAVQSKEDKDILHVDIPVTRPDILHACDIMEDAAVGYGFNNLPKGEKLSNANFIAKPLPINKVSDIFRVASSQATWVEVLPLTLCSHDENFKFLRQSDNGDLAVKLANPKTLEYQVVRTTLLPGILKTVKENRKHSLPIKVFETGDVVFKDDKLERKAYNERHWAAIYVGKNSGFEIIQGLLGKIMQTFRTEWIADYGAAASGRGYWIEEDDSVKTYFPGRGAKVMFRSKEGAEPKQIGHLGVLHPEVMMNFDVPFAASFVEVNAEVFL
Sequence of (T415A) yeast phenylalanine aminoacyl tRNA synthetase (PheRS) (P15625 whole entry T415A): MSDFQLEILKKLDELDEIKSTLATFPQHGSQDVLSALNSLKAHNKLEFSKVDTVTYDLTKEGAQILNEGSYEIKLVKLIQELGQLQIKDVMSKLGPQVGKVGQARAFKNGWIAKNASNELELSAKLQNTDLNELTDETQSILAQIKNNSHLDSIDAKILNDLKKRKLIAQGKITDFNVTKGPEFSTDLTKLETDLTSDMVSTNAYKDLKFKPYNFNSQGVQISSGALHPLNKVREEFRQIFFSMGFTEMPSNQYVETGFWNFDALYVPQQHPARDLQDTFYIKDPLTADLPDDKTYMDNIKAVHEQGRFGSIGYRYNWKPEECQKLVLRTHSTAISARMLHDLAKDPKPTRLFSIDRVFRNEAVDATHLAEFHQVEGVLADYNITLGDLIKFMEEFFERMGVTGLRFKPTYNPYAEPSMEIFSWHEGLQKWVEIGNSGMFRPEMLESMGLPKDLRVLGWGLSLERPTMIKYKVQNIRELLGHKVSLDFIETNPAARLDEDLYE
Series [4] has as its target T1, mutant yeast PheRS with mutations in N412G, S418C, T415G and S437F (Saccharomyces cerevisiae, UniProt P15625, N412G/S418C/S437F/T415G).
T1 construct: expressed in transfected cells; host or cells: E. coli AFW and DHF cells carrying pQE9_GFP6/GFP9_yPheRS library plasmids
In words: yeast PheRS library GFP/FACS screening, incorporation at UUU codon. The series is classed as cell-based. Particulars: mutant yPheRS N412G, S437F after two cycles of screening.

The target of series [5] is mu-yPheRS (Thr415Gly or Thr415Ala mutation in the α-subunit) (Saccharomyces cerevisiae, UniProt P15625, T415G). As to the kind of experiment: adenosine triphosphate-pyrophosphate exchange assay, activation of NaI and Phe by mu-yPheRS. The class given is biochemical. The protocol: The modified yeast PheRS (mu-yPheRS) was prepared by introduction of a Thr415Gly or Thr415Ala mutation in the α-subunit of the synthetase (Datta et al., J. Am. Chem. Soc. 124: 5652, 2002). The kinetics of activation of NaI and Phe by mu-yPheRS were analyzed in vitro via the adenosine triphosphate-pyrophosphate exchange assay. […] In addition, the T415G mutant was generated by four-primer mutagenesis.
Sequence of mu-yPheRS (Thr415Gly or Thr415Ala mutation in the α-subunit) (P15625 2-503 T415G): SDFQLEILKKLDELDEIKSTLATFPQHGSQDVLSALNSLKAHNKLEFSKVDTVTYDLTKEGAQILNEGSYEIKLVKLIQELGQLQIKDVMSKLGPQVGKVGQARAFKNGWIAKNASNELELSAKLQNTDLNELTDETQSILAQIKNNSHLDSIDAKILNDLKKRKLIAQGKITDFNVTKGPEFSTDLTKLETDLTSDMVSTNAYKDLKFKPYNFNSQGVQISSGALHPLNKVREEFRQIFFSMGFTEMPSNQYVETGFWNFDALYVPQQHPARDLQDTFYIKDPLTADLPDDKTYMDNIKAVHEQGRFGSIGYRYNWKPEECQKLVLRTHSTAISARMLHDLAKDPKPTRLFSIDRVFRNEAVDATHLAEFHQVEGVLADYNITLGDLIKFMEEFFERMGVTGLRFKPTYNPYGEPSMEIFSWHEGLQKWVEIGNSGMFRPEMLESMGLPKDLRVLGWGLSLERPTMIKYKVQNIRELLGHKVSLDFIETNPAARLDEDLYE
Sequence of mu-yPheRS (Thr415Gly or Thr415Ala mutation in the α-subunit) (P15624 2-595, further chain): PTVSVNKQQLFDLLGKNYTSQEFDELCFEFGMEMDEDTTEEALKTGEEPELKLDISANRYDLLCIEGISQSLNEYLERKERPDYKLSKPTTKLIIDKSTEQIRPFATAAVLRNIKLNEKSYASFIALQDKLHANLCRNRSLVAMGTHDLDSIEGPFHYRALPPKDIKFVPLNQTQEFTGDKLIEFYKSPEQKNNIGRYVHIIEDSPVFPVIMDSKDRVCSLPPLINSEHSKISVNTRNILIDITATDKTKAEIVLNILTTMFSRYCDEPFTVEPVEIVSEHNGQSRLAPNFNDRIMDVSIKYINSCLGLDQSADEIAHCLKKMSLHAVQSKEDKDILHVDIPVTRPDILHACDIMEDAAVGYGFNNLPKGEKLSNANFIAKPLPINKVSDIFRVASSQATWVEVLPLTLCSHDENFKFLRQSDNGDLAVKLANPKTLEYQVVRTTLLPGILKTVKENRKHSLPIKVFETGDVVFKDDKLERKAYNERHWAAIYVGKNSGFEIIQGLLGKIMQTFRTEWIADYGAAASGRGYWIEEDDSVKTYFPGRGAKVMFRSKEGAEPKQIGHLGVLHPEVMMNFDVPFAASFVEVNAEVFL

Series [6] concerns the target modified yeast PheRS (T415G) and tRNA^Phe with an amber suppressor (Saccharomyces cerevisiae, UniProt P15625, T415G). The series is classed as cell-based. Particulars: FIG. 13 mass spectra.
The next series has as its system Escherichia coli. Particulars: E. coli cells, cited from earlier work.
Substrate in series [7]: N[C@@H](Cc1ccccc1)C(=O)O
As to the kind of experiment: ATP-PPi exchange of amino acids by wild type yPheRS, Example 3. The series is classed as biochemical, Saccharomyces cerevisiae. Particulars: other: enzyme wild type; pH 7.6. The protocol: The amino acid dependent ATP-PP; exchange reaction was used to evaluate the activation of non-natural amino acids by yPheRS. The assay was performed in 200 mincroliters of reaction buffer containing 50 mM HEPES (pH=7.6), 20 mM MgCl2, 1 mM DTT, 2 mM ATP and 2 mM [^32P]-PPi with specific activity of 0.2-0.5 TBq/mol. Depending on the activity of the various non-natural amino acids with the synthetase, the amino acid concentration varied from 10 microM to 5 mM and enzyme concentration varied from 10 nM to 100 nM. Aliquots of 20 microliters were removed from the reaction solution at various time points and quenched into 500 microliters of buffer solution containing 200 mM NaPPi, 7% w/v HClO4 and 3% w/v activated charcoal. The charcoal was spun down and washed twice with 500 microliters of 10 mM NaPPi and 0.5% HclO4 solution. The radio-labeled ATP absorbed into the charcoal was quantified via liquid scintillation methods. The specificity constants were calculated by nonlinear regression fit of the data to a Michaelis Menten model. The kinetic parameters for the ATP-PPi exchange of amino acids by the yPheRS (T415G), wild type yPheRS, and yPheRS_naph variant are shown in the table below.

Converted amounts (≈) assume the structure as drawn. Where two headings read alike, the source gives them in different places.

With “yPheRS_naph variant (Saccharomyces cerevisiae S288C; N412G/S418C/S437F/T415G)”, the Km in series [1] (other: enzyme naph) is 2030 ± 691 µM; in [2] (other: enzyme naph) it was 1424 ± 597 µM; with N[C@@H](Cc1ccccc1)C(=O)O (other: enzyme naph), 11010 ± 2688 µM. Moreover, the results for the kcat (in series [1] (other: enzyme naph); in [2] (other: enzyme naph); in the series with N[C@@H](Cc1ccccc1)C(=O)O (other: enzyme naph)) were 0.03 ± 0.018 s⁻¹, 0.0035 ± 0.0009 s⁻¹ and 0.0095 ± 0.0021 s⁻¹, respectively. Besides, the results for the kcat/Km (in series [1] (other: enzyme naph); in [2] (other: enzyme naph); in the series on N[C@@H](Cc1ccccc1)C(=O)O (other: enzyme naph)) were 14.5 ± 4.22 M⁻¹ s⁻¹, 2.52 ± 0.44 M⁻¹ s⁻¹ and 0.855 ± 0.007 M⁻¹ s⁻¹, respectively.

For “yPheRS (T415G) (Saccharomyces cerevisiae S288C; T415G)”, the Km in series [1] (other: enzyme T415G) came to 7.03 ± 0.14 µM; in [2] (other: enzyme T415G), 2.83 ± 1.6 µM; in the series with N[C@@H](Cc1ccccc1)C(=O)O (other: enzyme T415G) it was 55 ± 14 µM. In addition, the turnover number (kcat) came to 0.208 ± 0.04 s⁻¹ in series [1] (other: enzyme T415G), 0.153 ± 0.003 s⁻¹ in series [2] (other: enzyme T415G) and 0.202 ± 0.11 s⁻¹ in the series on N[C@@H](Cc1ccccc1)C(=O)O (other: enzyme T415G). In addition, the kcat/Km in series [1] (other: enzyme T415G) is 29500 ± 5850 M⁻¹ s⁻¹; in [2] (other: enzyme T415G), 63200 ± 34600 M⁻¹ s⁻¹; in the series with N[C@@H](Cc1ccccc1)C(=O)O (other: enzyme T415G) it was 3510 ± 1130 M⁻¹ s⁻¹.

For the molecule `N[C@@H](Cc1ccc(Br)cc1)C(=O)O` [bromophenylalanine, p-bromo-phenylalanine], in series [3], the “preference for bromophenylalanine than for naturally occurring phenylalanine” value is on record as 5 fold.

For `N[C@@H](Cc1ccc2ccccc2c1)C(=O)O` [2Nal, 3-(2-naphthyl)alanine], the “incorporation at UUU codon” value in series [4] is on record as “around 90%”. Moreover, the “specificity constant (kcat/KM), fold larger than that for Phe” value in series [5] is 8 fold.

`C#Cc1ccc(C[C@H](N)C(=O)O)cc1` [p-ethynyl-phenylalanine]: the “incorporation into a test protein” value in series [6] was “incorporated into a test protein”.

Regarding `CC1(C)S[C@@H]2[C@H](NC(=O)[C@H](N)c3ccccc3)C(=O)N2[C@H]1C(=O)O` [ampicillin], the half-maximal inhibitory concentration (IC50) entry was “about 500 μg/mL” in the series with Escherichia coli (SctRNAGInCUA coexpressed with ScGInRS) and 20 µg/mL (≈ 57.2 µM) in the series with Escherichia coli (only SctRNAGInCUA expressed).

B1: wild type yPheRS (Saccharomyces cerevisiae S288C) (protein)
chain: MSDFQLEILKKLDELDEIKSTLATFPQHGSQDVLSALNSLKAHNKLEFSKVDTVTYDLTKEGAQILNEGSYEIKLVKLIQELGQLQIKDVMSKLGPQVGKVGQARAFKNGWIAKNASNELELSAKLQNTDLNELTDETQSILAQIKNNSHLDSIDAKILNDLKKRKLIAQGKITDFNVTKGPEFSTDLTKLETDLTSDMVSTNAYKDLKFKPYNFNSQGVQISSGALHPLNKVREEFRQIFFSMGFTEMPSNQYVETGFWNFDALYVPQQHPARDLQDTFYIKDPLTADLPDDKTYMDNIKAVHEQGRFGSIGYRYNWKPEECQKLVLRTHSTAISARMLHDLAKDPKPTRLFSIDRVFRNEAVDATHLAEFHQVEGVLADYNITLGDLIKFMEEFFERMGVTGLRFKPTYNPYTEPSMEIFSWHEGLQKWVEIGNSGMFRPEMLESMGLPKDLRVLGWGLSLERPTMIKYKVQNIRELLGHKVSLDFIETNPAARLDEDLYE
On to B1, for which, in [7], the Michaelis-Menten constant (Km) stood at 3.85 ± 0.99 µM, the kcat was 0.181 ± 0.011 s⁻¹ and the kcat/Km was 51000 ± 22700 M⁻¹ s⁻¹.
